These results are taken from US20180153953A1 (CITY OF HOPE, published 2018).

This assay has as its target T1, Mu-type opioid receptor (Homo sapiens) (Homo sapiens, UniProt P35372 1-400).
T1 construct: Endogenous receptor of PANC-1 cells, PANC-1 MCTS, normal pancreatic epithelial cells and patient tissue (fixed cells or cell lysates); also called MOR; mu opioid receptor
As to the kind of experiment: co-immunoprecipitation: lysates of normal pancreatic epithelial cells or PANC-1 cells, IP anti-MOR, blot anti-CXCR4. The text has this: FIG. 3A-3D: There is no co-localization between MOR and CXCR4. FIG. 3A. […] Peak centers are shown. FIG. 3B. […] Peak centers are shown. FIG. 3C. Cross-correlation curves with s.e.m show no co-localization between MOR and CXCR4 in PANC-1 cells (diamonds, N=32 regions from 14 cells), PANC-1 MCTS (triangles, N=20 regions from 12 cells), and normal pancreatic epithelial cells (circles, N=21 regions from 13 cells). In all cases no long-range correlations were observed. FIG. 3D. Cell lysates from either normal pancreatic epithelial cells or PANC-1 cells were immunoprecipitated with anti-MOR antibody and immunoblotted with anti-CXCR4 antibody. CXCR4 was not detected in the MOR immunoprecipitate in either cell line.
Co-immunoprecipitation was performed using the co-immunoprecipitation kit (Pierce) per the manufacturer's protocol. Briefly, MOR antibody was immobilized using a coupling resin. PANC-1 or normal pancreatic epithelial cells were lysed using buffer containing 1% Nonidet P-40, 10% glycerol, 50 mM Tris-Cl, pH 7.4, 300 mM NaCl, 1.5 mM MgCl₂, 1 mM CaCl₂ and protease inhibitor tablets (Pierce) similarly as described before (Rozenfeld and Devi, 2007), pre-cleared and added to the antibody coupled resin and incubated with gentle shaking overnight at 4° C. After thorough washes, the protein sample co-immunoprecipitate was eluted and used for Western blotting with SSTR2 or CXCR4 antibodies. […]

T1 sequence (P35372 whole entry): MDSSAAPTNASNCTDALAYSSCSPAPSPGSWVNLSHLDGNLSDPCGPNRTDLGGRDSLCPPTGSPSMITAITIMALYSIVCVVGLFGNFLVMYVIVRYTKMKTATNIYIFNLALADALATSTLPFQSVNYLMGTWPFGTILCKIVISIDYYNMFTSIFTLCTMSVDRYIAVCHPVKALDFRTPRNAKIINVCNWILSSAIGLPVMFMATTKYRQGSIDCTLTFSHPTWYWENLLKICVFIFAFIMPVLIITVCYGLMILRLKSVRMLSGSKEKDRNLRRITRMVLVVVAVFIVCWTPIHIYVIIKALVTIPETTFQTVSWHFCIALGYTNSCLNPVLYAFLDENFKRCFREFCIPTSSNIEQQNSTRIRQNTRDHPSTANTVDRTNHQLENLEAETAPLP

B1: C-X-C motif receptor 4 (CXCR4) (receptor, human, UniProt P61073 1-352, looked up)
chain: MEGISIYTSDNYTEEMGSGDYDSMKEPCFREENANFNKIFLPTIYSIIFLTGIVGNGLVILVMGYQKKLRSMTDKYRLHLSVADLLFVITLPFWAVDAVANWYFGNFLCKAVHVIYTVNLYSSVLILAFISLDRYLAIVHATNSQRPRKLLAEKVVYVGVWIPALLLTIPDFIFANVSEADDRYICDRFYPNDLWVVVFQFQHIMVGLILPGIVILSCYCIIISKLSHSKGHQKRKALKTTVILILAFFACWLPYYIGISIDSFILLEIIKQGCEFENTVHKWISITEALAFFHCCLNPILYAFLGAKFKTSAQHALTSVSRGSSLKILSKGKRGGHSSVSTESESSSFHSS
notes: whole, on cells; Endogenous receptor in fixed cells or cell lysates
On to B1, for which the binding result is “no binding”.
